Source: publication PMC5309722, “A substrate-bound structure of cyanobacterial biliverdin reductase identifies stacked substrates as critical for activity” (Nature Communications, 2017)
Changes are numbered by the printed parent chain. Names and notes keep the numbering of the source.

Legend:
[1] = molecular target: T1, Syn BVR (Synechocystis sp. PCC 6803, UniProt P72782); assay: reduction of biliverdin in crystal and solution; type: biochemical; conditions: biliverdin as co-substrate; crystallization solution
T1 construct: gene bvdR; full length, 328 residues; N-terminal His6 tag (pET15b), E. coli C41(DE3); tag cut with thrombin for crystals

[2] = molecular target: T1, Syn BVR; assay: X-ray crystal structure, co-crystal, […] Å; also optical titration; type: binding; conditions: ternary complex with NADP+; two stacked biliverdins (proximal and distal) in active site
[3] = molecular target: T2, rat BVR (Rattus norvegicus, UniProt P46844); assay: optical titration, difference absorption; type: binding; conditions: 5 mM NADP+, 200 mM Tris-HCl pH 8.75, 28 °C; two biliverdins bound
T2 construct: gene Blvra; C-terminal His tag (pET21a-rat bvr), E. coli BL21(DE3)
T2 sequence (P46844 1-295 limits assumed): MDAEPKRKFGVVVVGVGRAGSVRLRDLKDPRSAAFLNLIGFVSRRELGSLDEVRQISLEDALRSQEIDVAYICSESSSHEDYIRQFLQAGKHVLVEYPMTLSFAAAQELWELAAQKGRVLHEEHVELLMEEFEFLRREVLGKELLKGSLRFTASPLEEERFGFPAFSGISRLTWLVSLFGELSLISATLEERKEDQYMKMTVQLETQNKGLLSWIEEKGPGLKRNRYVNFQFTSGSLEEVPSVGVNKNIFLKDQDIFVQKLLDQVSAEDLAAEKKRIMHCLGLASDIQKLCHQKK

[4] = molecular target: T3, human BVR (Homo sapiens, UniProt P53004); assay: optical titration, difference absorption; type: binding; conditions: 5 mM NADP+, 200 mM Tris-HCl pH 8.75, 28 °C; two biliverdins bound
T3 construct: gene BLVRA; C-terminal His tag (pET21a(+)), codon-optimized synthetic gene, E. coli BL21(DE3)
T3 sequence (P53004 1-296 limits assumed): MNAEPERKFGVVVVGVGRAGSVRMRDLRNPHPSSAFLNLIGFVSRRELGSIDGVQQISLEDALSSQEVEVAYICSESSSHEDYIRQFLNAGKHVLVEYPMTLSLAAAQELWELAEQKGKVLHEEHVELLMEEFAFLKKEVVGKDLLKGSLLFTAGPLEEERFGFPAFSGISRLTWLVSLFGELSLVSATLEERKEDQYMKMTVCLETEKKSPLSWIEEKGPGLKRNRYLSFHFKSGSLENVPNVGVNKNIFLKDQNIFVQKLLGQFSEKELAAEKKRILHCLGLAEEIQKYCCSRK

[5] = molecular target: T1, Syn BVR; assay: X-ray crystal structure, soaked crystal, […] Å; type: binding; conditions: 10 mM NADP+ soak; no biliverdin; cleft between the two domains
[6] = substrate: C=CC1=C(C)/C(=C/c2[nH]c(/C=C3N=C(/C=C4\NC(=O)C(C)=C4C=C)C(C)=C\3CCC(=O)O)c(CCC(=O)O)c2C)NC1=O; assay: steady-state kinetics, A450 bilirubin formation; type: biochemical, Homo sapiens; conditions: 100 μM NADPH, 100 mM Tris-HCl pH 8.75
Excerpt: steady-state kinetics, A450 bilirubin formation on human BVR

[7] = substrate: C=CC1=C(C)/C(=C/c2[nH]c(/C=C3N=C(/C=C4\NC(=O)C(C)=C4C=C)C(C)=C\3CCC(=O)O)c(CCC(=O)O)c2C)NC1=O; assay: steady-state kinetics, A450 bilirubin formation; type: biochemical, Synechocystis sp. PCC 6803; conditions: 100 μM NADPH, 100 mM citrate pH 5.75
Excerpt: steady-state kinetics, A450 bilirubin formation on Syn BVR

[8] = substrate: C=CC1=C(C)/C(=C/c2[nH]c(/C=C3N=C(/C=C4\NC(=O)C(C)=C4C=C)C(C)=C\3CCC(=O)O)c(CCC(=O)O)c2C)NC1=O; assay: steady-state kinetics, A450 bilirubin formation; type: biochemical, Rattus norvegicus; conditions: 100 μM NADPH, 100 mM Tris-HCl pH 8.75
Excerpt: steady-state kinetics, A450 bilirubin formation on rat BVR

T1 sequence (P72782 entry or part of it): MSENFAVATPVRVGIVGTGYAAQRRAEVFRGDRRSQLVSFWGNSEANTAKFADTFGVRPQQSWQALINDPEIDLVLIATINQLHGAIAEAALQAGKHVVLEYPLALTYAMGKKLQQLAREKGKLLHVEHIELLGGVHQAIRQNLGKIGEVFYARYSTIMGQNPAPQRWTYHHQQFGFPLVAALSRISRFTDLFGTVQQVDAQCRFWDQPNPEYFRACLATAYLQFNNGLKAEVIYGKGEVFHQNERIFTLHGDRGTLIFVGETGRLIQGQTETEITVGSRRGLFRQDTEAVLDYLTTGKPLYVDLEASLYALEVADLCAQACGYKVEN

## NC(=O)C1=CN([C@@H]2O[C@H](COP(=O)(O)OP(=O)(O)OC[C@H]3O[C@@H](n4cnc5c(N)ncnc54)[C@H](OP(=O)(O)O)[C@@H]3O)[C@@H](O)[C@H]2O)C=CC1 [NADPH]
[1]
  reduction of biliverdin in crystal and solution: BV could be rapidly (as in the mixing time) reduced to BR by addition of NADPH

## C=CC1=C(C)/C(=C/c2[nH]c(/C=C3N=C(/C=C4\NC(=O)C(C)=C4C=C)C(C)=C\3CCC(=O)O)c(CCC(=O)O)c2C)NC1=O [biliverdin IXα]
[2]
  X-ray crystal structure, co-crystal, 2.6 Å; also optical titration: two BV molecules are bound to the catalytic cleft between the two domains
[3]
  optical titration, difference absorption: two BV molecules bound in both human and rat BVRs
[4]
  optical titration, difference absorption: two BV molecules bound in both human and rat BVRs

## NC(=O)c1ccc[n+]([C@@H]2O[C@H](COP(=O)(O)OP(=O)(O)OC[C@H]3O[C@@H](n4cnc5c(N)ncnc54)[C@H](OP(=O)(O)O)[C@@H]3O)[C@@H](O)[C@H]2O)c1 [NADP^+]
[5]
  X-ray crystal structure, soaked crystal, 2.7 Å: NADP^+ binds in the cleft between the two domains

B1: human BVR (Homo sapiens) (protein)
chain: T3 sequence (P53004 1-296 limits assumed)
notes: C-terminal His tag (pET21a(+)), codon-optimized synthetic gene, E. coli BL21(DE3)
[6]
  Km: 20.7 ± 10.1 µM
  kcat: 94.8 ± 31.4 s⁻¹
  kcat/Km: 4.6e+06 M⁻¹ s⁻¹

B2: human BVR (Homo sapiens; R172A) (protein)
chain: T3 sequence (P53004 1-296 limits assumed) with R172A
notes: as for B1
[6]
  Km: 87.7 ± 35.7 µM
  kcat: 17.9 ± 6.3 s⁻¹
  kcat/Km: 200000 M⁻¹ s⁻¹

B3: human BVR (Homo sapiens; Y98F) (protein)
chain: T3 sequence (P53004 1-296 limits assumed) with Y98F
notes: as for B1
[6]
  Km: 3.8 ± 0.3 µM
  kcat: 16.8 ± 0.5 s⁻¹
  kcat/Km: 4.4e+06 M⁻¹ s⁻¹

B4: Syn BVR (Synechocystis sp. PCC 6803 substr. Kazusa; R246A) (protein)
chain: MSENFAVATPVRVGIVGTGYAAQRRAEVFRGDRRSQLVSFWGNSEANTAKFADTFGVRPQQSWQALINDPEIDLVLIATINQLHGAIAEAALQAGKHVVLEYPLALTYAMGKKLQQLAREKGKLLHVEHIELLGGVHQAIRQNLGKIGEVFYARYSTIMGQNPAPQRWTYHHQQFGFPLVAALSRISRFTDLFGTVQQVDAQCRFWDQPNPEYFRACLATAYLQFNNGLKAEVIYGKGEVFHQNEAIFTLHGDRGTLIFVGETGRLIQGQTETEITVGSRRGLFRQDTEAVLDYLTTGKPLYVDLEASLYALEVADLCAQACGYKVEN
notes: full length, 328 residues; N-terminal His6 tag (pET15b), E. coli C41(DE3); tag cut with thrombin for crystals
[7]
  Km: 5.1 ± 0.8 µM
  kcat: 11 ± 0.6 s⁻¹
  kcat/Km: 2.2e+06 M⁻¹ s⁻¹

B5: Syn BVR (Synechocystis sp. PCC 6803 substr. Kazusa) (protein)
chain: B4 chain with A246R
notes: as for B4
[7]
  Km: 1.8 ± 0.3 µM
  kcat: 7.1 ± 0.2 s⁻¹
  kcat/Km: 3.9e+06 M⁻¹ s⁻¹

B6: Syn BVR (Synechocystis sp. PCC 6803 substr. Kazusa; R185A) (protein)
chain: B4 chain with R185A, A246R
notes: as for B4
[7]
  Km: 6.9 ± 0.6 µM
  kcat: 0.7 ± 0.02 s⁻¹
  kcat/Km: 100000 M⁻¹ s⁻¹

B7: Syn BVR (Synechocystis sp. PCC 6803 substr. Kazusa; T169A) (protein)
chain: B4 chain with T169A, A246R
notes: as for B4
[7]
  Km: 3.4 ± 0.5 µM
  kcat: 13.1 ± 0.5 s⁻¹
  kcat/Km: 3.9e+06 M⁻¹ s⁻¹

B8: Syn BVR (Synechocystis sp. PCC 6803 substr. Kazusa; Y102F) (protein)
chain: B4 chain with Y102F, A246R
notes: as for B4
[7]
  Km: 4.0 ± 0.3 µM
  kcat: 2.7 ± 0.07 s⁻¹
  kcat/Km: 700000 M⁻¹ s⁻¹

B9: Syn BVR (Synechocystis sp. PCC 6803 substr. Kazusa; R185K) (protein)
chain: B4 chain with R185K, A246R
notes: as for B4
[7]
  Km: 12.6 ± 1.5 µM
  kcat: 0.9 ± 0.05 s⁻¹
  kcat/Km: 70000 M⁻¹ s⁻¹

B10: rat BVR (Rattus norvegicus) (protein)
chain: T2 sequence (P46844 1-295 limits assumed)
notes: C-terminal His tag (pET21a-rat bvr), E. coli BL21(DE3)
[8]
  Km: 4.6 ± 1.1 µM
  kcat: 69.3 ± 8.5 s⁻¹
  kcat/Km: 1.51e+07 M⁻¹ s⁻¹

B11: rat BVR (Rattus norvegicus; Y97F) (protein)
chain: T2 sequence (P46844 1-295 limits assumed) with Y97F
notes: as for B10
[8]
  Km: 11.7 ± 1.0 µM
  kcat: 13.6 ± 0.6 s⁻¹
  kcat/Km: 1.2e+06 M⁻¹ s⁻¹

B12: rat BVR (Rattus norvegicus; R171A) (protein)
chain: T2 sequence (P46844 1-295 limits assumed) with R171A
notes: as for B10
[8]
  Km: 24.4 ± 1.5 µM
  kcat: 6 ± 0.2 s⁻¹
  kcat/Km: 200000 M⁻¹ s⁻¹

B13: rat BVR (Rattus norvegicus; R171E) (protein)
chain: T2 sequence (P46844 1-295 limits assumed) with R171E
notes: as for B10
[8]
  Km: 45.7 ± 15.4 µM
  kcat: 0.7 ± 0.2 s⁻¹
  kcat/Km: 20000 M⁻¹ s⁻¹
